The values below come from patent publication US20240092908A1.

Assay [1] concerns the target fusion protein hPD1-HSA composed of a PD1 extracellular domain sequence and a human serum albumin sequence (human). As to the kind of experiment: ELISA, hPD1-HSA coated 200 ng/well, HRP anti-human IgG Fc.
Assay [2] has the same target. As to the kind of experiment: competitive ELISA, hPD1-HSA coated; competitor bio-hPDL1-FC, HRP-Streptavidin.

In assay [1], Keytruda ® (antibody) returned an EC50 of 0.181 nM. The IC50 in assay [2] is 1.72 nM.
